The values that follow are results of earlier work, collected in article PMC8215388.

The target in the data set is DnaK (Escherichia coli) (UniProt P0A6Y8). The data set can be described thus: analytical ultracentrifugation and cross-linking.

Chain of DnaK (P0A6Y8 2-638): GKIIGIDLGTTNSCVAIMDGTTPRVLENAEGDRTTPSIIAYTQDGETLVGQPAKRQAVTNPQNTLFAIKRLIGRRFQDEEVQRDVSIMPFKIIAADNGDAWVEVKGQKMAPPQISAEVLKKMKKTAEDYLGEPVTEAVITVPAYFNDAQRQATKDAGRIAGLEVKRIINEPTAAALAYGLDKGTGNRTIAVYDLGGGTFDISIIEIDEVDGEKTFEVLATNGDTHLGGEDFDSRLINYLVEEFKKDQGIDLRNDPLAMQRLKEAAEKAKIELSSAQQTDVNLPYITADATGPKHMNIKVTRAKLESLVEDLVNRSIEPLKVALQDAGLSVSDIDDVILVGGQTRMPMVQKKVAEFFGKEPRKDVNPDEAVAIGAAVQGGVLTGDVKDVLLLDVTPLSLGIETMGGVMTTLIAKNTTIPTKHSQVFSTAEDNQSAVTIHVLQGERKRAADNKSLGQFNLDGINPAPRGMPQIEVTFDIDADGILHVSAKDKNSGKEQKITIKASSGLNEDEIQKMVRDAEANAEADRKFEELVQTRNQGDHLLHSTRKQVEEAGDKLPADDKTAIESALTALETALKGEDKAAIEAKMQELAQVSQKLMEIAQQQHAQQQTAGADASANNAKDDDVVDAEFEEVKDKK

In the case of DnaK (from UniProt P0A6Y8), the Kd was 200 µM.

In general, Kd refers to a measure of binding affinity in units of concentration.
